This note sets out measurements from patent US7314724B2, “Therapeutic applications of laminin and laminin-derived protein fragments” (University of Washington, priority 1996, dated 2008).

The experiment deals with T1, Aβ (1-40) (Homo sapiens, UniProt P05067).
T1 construct: 2 μg of Aβ (1-40)(Bachem Inc., Torrance, Calif. USA; Lot #WM365); purchased Bachem Inc., Torrance, Calif; Lot #WM365
Nature of the experiment: Solid phase binding immunoassay of laminin to substrate bound Aβ (1-40). Particulars: one-site model, single binding constant; read-out: apparent dissociation constant Kd, binding to immobilized Aβ (1-40). As to the method:
2 μg of Aβ (1-40)(Bachem Inc., Torrance, Calif. USA; Lot #WM365) in 40 μl of Tris-buffered saline (TBS)(pH 7.0) was allowed to bind overnight at 4° C. to microtiter wells (Nunc plates, Maxisorb). The next day all of the microtiter wells were blocked by incubating with 300 μl of Tris-buffered saline containing 100 mM Tris-HCl, 50 MM NaCl, 0.05% Tween-20, and 3 mM NaN3 (pH 7.4)(TTBS) plus 2% bovine serum albumin (BSA). Various dilutions (ie. 1:10, 1:30, 1:90, 1:270, 1:810, 1:2430 and 1:7290) of Engelbreth-Holm-Swarm (EHS) mouse tumor laminin (1 mg/ml)(Sigma Chemical Co., St. Louis, Mo., USA) in 250 μl of TBS (pH 7.4) were placed in wells (in triplicate) either containing substrate bound Aβ (1-40) or blank, and allowed to bind overnight at 4° C. overnight. […] The reaction was stopped with 50 μl of 4N H2SO4 and read on a Model 450 microplate reader (Biorad, Hercules, Calif. USA) at 490 nm. Data points representing a mean of triplicate determinations were plotted and the affinity constants (ie. Kd) were determined using Ultrafit (version 2.1, Biosoft, Cambridge, U.K.) as described below.
The binding data were analyzed assuming a thermodynamic equilibrium for the formation of the complex BL, from the laminin ligand in solution, L, and the uncomplexed Aβ adsorbed to the microtiter well, B, according to the equation: Kd=[B]×[L]/[BL]. […]

T1 sequence (P05067 672-711 limits assumed): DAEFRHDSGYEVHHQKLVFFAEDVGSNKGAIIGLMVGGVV

With “laminin: Engelbreth-Holm-Swarm (EHS) mouse tumor laminin (Sigma); 850 kDa basement membrane glycoprotein of A, B1 and B2 chains”, the Kd amounted to 2.7 nM.
